The text below walks through data of patent publication US20240342704A1 (BERKELEY LIGHTS, published 2024).

In this test the target is T1, HLA-A*02:01 MHC Class I complex (biotinylated) (human, biotinylated).
T1 construct: The MHC molecule as the partner of the peptide in the groove; It was captured on streptavidin DynaBeads; also called pHLA; pMHC
The test can be described thus: pMHC on streptavidin beads held in T cell culture media at 37 C for 0-48 h; W6/32-APC MFI by flow cytometry fitted to an exponential decay. The protocol:
To wells of a 96-well, round-bottom microplate, 0.2 mL of T Cell Culture Media (Advanced RPMI, 10% Human AB Serum, 1 mM GlutaMax) was added and equilibrated to 37° C. in a standard tissue culture incubator. To three wells each, four microliters of each pHLA-beads was added to a well. The process of adding beads to wells was repeated at time intervals resulting in beads that were held in the media at 37° C. for 48, 32, 24, 16, 8, 4, 2, and 1 hr. The plate was centrifuged at 400 g for 5 minutes, and the media removed by flicking the plate. A sample of beads held at 4° C. for the duration of the time course was then added to three wells to create the 0 hr time point.
An APC-conjugated, conformationally sensitive antibody which only recognizes pMHC molecules in the folded, complex conformation (Clone W6/32, Biolegend) was then added to each well. The antibody was diluted 50-fold from the manufacturer stock into Assay Buffer, and 0.05 mL of antibody mixture was added to each well. […]
Antibody binding to the beads was then detected on a FACSCelesta with High-Throughput Sampler (BD Biosciences). […] Approximately 25,000 bead events were recorded for each sample. The Median Fluorescence Intensity (MFI) in the APC channel for the pHLA-beads in each sample was then recorded. […] The half-lives for the pHLA complexes were then calculated from the fitted decay constant.
In general terms: Flow cytometry measures light scatter and fluorescence of single cells or particles in a stream.

For orientation: half-life means the time needed for the level to fall by half in the phase considered. Low readings indicate rapid decline, high ones slow decline.

B1: TCL1-derived peptide antigen SLLPIMWQLY (SEQ ID NO: 6) (peptide)
peptide: SLLPIMWQLY
notes: Synthetic 10-mer peptide; also called Non-Immunogenic TCL1-derived peptide
B1 showed a half-life of about 0.5 h.

B2: SLC45A2-derived peptide antigen SLYSYFQKV (SEQ ID NO: 5) (peptide)
peptide: SLYSYFQKV
notes: Synthetic 9-mer peptide, dissolved in DMSO and diluted in PBS for the exchange reaction; also called Immunogenic SLC45A2-derived peptide; SLC45A2 antigen
For the molecule B2, the half-life was about 17 h.
